Source: PMC7920257, “Probing Protein Folding with Sequence-Reversed α-Helical Bundles” (International Journal of Molecular Sciences, 2021)
Blank lines part the entries; values can stand above or below the molecule they belong to.

Legend:
RM6 = RM6 (UniProt P03051); assay: SAXS; 10 °C, 1–12 mg/mL; molecular mass from I(0) of the Guinier plot against BSA; rRop from the refolding protocol
rRop = assay: SEC-MALS; 100 uL loaded (wtRop 3 mg/mL, rRop 5.5 mg/mL, rRM6 3.5 mg/mL) on Superdex 75 (wtRop, rRop) or Superdex 200 (rRM6); rRop from the non-refolding protocol
rRM6 [1] = assay: SAXS; 10 °C, 1–12 mg/mL; molecular mass from I(0) of the Guinier plot against BSA; rRop from the refolding protocol
rRM6 [2] = assay: SEC; Sephacryl S-200 high-resolution column, 20 °C, 0.5 mL/min, after Ni-NTA; rRop from the refolding protocol gives an asymmetric peak
rRM6 [3] = assay: SEC-MALS; 100 uL loaded (wtRop 3 mg/mL, rRop 5.5 mg/mL, rRM6 3.5 mg/mL) on Superdex 75 (wtRop, rRop) or Superdex 200 (rRM6); rRop from the non-refolding protocol
[4] = molecular target: the molecule itself; assay: as above

stoichiometry N (RM6): 4
Molecule: RM6 (from UniProt P03051 1-63) (natural protein)

stoichiometry N (rRop): 2
Molecule: rRop

stoichiometry N (rRM6 [1]): 4
stoichiometry N (rRM6 [2]): 4
stoichiometry N (rRM6 [3]): 4
Molecule: rRM6

B1: Rop (natural protein)
chain: MTKQEKTALNMARFIRSQTLTLLEKLNELDADEQADICESLHDHADELYRSCLARFGDDGENL
notes: homodimeric 4-alpha-helical bundle; also called wtRop; wild-type Rop
stoichiometry N [4]: 2
